Results as given in patent US20110262424A1 (published 2011).

B1: human cell line recombinant human factor VIII (human-cl rhFVIII), a human B-domain-deleted factor VIII protein produced in the human cell line HEK293F (other, UniProt P00451 20-2351, looked up)
chain: ATRRYYLGAVELSWDYMQSDLGELPVDARFPPRVPKSFPFNTSVVYKKTLFVEFTDHLFNIAKPRPPWMGLLGPTIQAEVYDTVVITLKNMASHPVSLHAVGVSYWKASEGAEYDDQTSQREKEDDKVFPGGSHTYVWQVLKENGPMASDPLCLTYSYLSHVDLVKDLNSGLIGALLVCREGSLAKEKTQTLHKFILLFAVFDEGKSWHSETKNSLMQDRDAASARAWPKMHTVNGYVNRSLPGLIGCHRKSVYWHVIGMGTTPEVHSIFLEGHTFLVRNHRQASLEISPITFLTAQTLLMDLGQFLLFCHISSHQHDGMEAYVKVDSCPEEPQLRMKNNEEAEDYDDDLTDSEMDVVRFDDDNSPSFIQIRSVAKKHPKTWVHYIAAEEEDWDYAPLVLAPDDRSYKSQYLNNGPQRIGRKYKKVRFMAYTDETFKTREAIQHESGILGPLLYGEVGDTLLIIFKNQASRPYNIYPHGITDVRPLYSRRLPKGVKHLKDFPILPGEIFKYKWTVTVEDGPTKSDPRCLTRYYSSFVNMERDLASGLIGPLLICYKESVDQRGNQIMSDKRNVILFSVFDENRSWYLTENIQRFLPNPAGVQLEDPEFQASNIMHSINGYVFDSLQLSVCLHEVAYWYILSIGAQTDFLSVFFSGYTFKHKMVYEDTLTLFPFSGETVFMSMENPGLWILGCHNSDFRNRGMTALLKVSSCDKNTGDYYEDSYEDISAYLLSKNNAIEPRSFSQNSRHQAYRYRRGEITRTTLQSDQEEIDYDDTISVEMKKEDFDIYDEDENQSPRSFQKKTRHYFIAAVERLWDYGMSSSPHVLRNRAQSGSVPQFKKVVFQEFTDGSFTQPLYRGELNEHLGLLGPYIRAEVEDNIMVTFRNQASRPYSFYSSLISYEEDQRQGAEPRKNFVKPNETKTYFWKVQHHMAPTKDEFDCKAWAYFSDVDLEKDVHSGLIGPLLVCHTNTLNPAHGRQVTVQEFALFFTIFDETKSWYFTENMERNCRAPCNIQMEDPTFKENYRFHAINGYIMDTLPGLVMAQDQRIRWYLLSMGSNENIHSIHFSGHVFTVRKKEEYKMALYNLYPGVFETVEMLPSKAGIWRVECLIGEHLHAGMSTLFLVYSNKCQTPLGMASGHIRDFQITASGQYGQWAPKLARLHYSGSINAWSTKEPFSWIKVDLLAPMIIHGIKTQGARQKFSSLYISQFIIMYSLDGKKWQTYRGNSTGTLMVFFGNVDSSGIKHNIFNPPIIARYIRLHPTHYSIRSTLRMELMGCDLNSCSMPLGMESKAISDAQITASSYFTNMFATWSPSKARLHLQGRSNAWRPQVNNPKEWLQVDFQKTMKVTGVTTQGVKSLLTSMYVKEFLISSSQDGHQWTLFFQNGKVKVFQGNQDSFTPVVNSLDPPLLTRYLRIHPQSWVHQIALRMEVLGCEAQDLY
notes: B-domain-deleted construct made in HEK293F cells

Experiments:
[1] = target: human von Willebrand factor (human) (UniProt P04275); test: SPR, Biacore 3000, vWF amine-coupled to CM5 chip, global fit to a simple interaction model
[2] = target: T1, human von Willebrand factor (human, UniProt P04275 764-2813, limits assumed); test: as above
T1 construct: The preparation used in the assay is not described; also called vWF
Protocol: The binding of human-cl rhFVIII to human von Willebrand factor was analyzed using surface plasmon resonance with the Biacore 3000 instrument. The recombinant factor VIII products X and Y derived from murine cell lines (murine-cl rhFVIII X and Y) were used as comparators.
The von Willebrand factor was immobilized through primary amines to the carboxymethylated dextran of a CM5 sensor chip. The binding data were globally fit to a simple interaction model yielding kinetic parameters and affinities. The kinetics in binding and affinity to von Willebrand factor were analyzed. Furthermore, a quantitative measure of the capacity of Human-cl rhFVIII to bind to von Willebrand factor in comparison with other recombinant factor VIII products was obtained.

| Molecule | Kd [1] | koff [1] | kon [1] | Kd [2] | koff [2] | kon [2] |
| --- | --- | --- | --- | --- | --- | --- |
| murine-cl rhFVIII X (recombinant factor VIII product X derived from a murine cell line) (from UniProt P00451 20-2351) | 0.32 nM | 0.00105 s⁻¹ | 3.3e+06 M⁻¹ s⁻¹ |  |  |  |
| murine-cl rhFVIII Y (recombinant factor VIII product Y derived from a murine cell line) (from UniProt P00451 20-2351) | 0.34 nM | 0.00105 s⁻¹ | 3.1e+06 M⁻¹ s⁻¹ |  |  |  |
| B1 |  |  |  | 0.21 nM | 0.00095 s⁻¹ | 4.5e+06 M⁻¹ s⁻¹ |
